Measured values from paper PMC13399123, “Interaction of HS1BP3 with cortactin modulates TKS5 localisation, cell secretion and cancer malignancy” (Molecular Oncology, 2026).

Biological target: T1, full-length MBP-HS1BP3 (UniProt Q53T59 1-392)
T1 construct: HS1BP3, full length; also called HS1BP3 FL; MBP HS1BP3 full-length WT; source: SoluBL21 E. coli, purified (amylose resin, eluted with 10 mM maltose)
T1 sequence (looked up): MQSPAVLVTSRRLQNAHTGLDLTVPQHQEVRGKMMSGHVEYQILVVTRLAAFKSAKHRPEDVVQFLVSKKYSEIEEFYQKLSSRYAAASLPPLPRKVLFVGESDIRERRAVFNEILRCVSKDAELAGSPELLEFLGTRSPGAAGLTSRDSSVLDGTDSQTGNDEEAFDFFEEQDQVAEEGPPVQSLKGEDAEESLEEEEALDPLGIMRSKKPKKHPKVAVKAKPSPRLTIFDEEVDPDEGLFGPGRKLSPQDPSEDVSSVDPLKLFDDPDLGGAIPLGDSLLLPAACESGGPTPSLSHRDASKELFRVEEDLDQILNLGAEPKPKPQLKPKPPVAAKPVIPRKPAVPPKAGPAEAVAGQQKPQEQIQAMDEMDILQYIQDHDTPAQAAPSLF
Assay: pull-down; equal concentrations of GST-SH3 (on glutathione beads) and purified MBP-tagged HS1BP3 proteins incubated 2 h at 4 °C, six washes with GST-buffer, anti-MBP immunoblot
Settings: both partners purified

B1: GST-SH3 (SH3 domain of cortactin fused to GST) (domain or fragment)
chain: not shown
notes: SH3 domain of cortactin (CTTN); Q14247 amino acids 492-550 are printed only for the SH3 fragment used in the AlphaFold model; Held on glutathione beads as bait; also called GST-SH3 (cortactin); source: SoluBL21 E. coli, purified on Glutathione Sepharose 4B beads
  binding result: binds
